Patent US20130253037

Legend:
[1] = target: 6-His-LIMK2 (recombinant, E. coli) (UniProt P53671)
[2] = target: 6-His-PHLDA1 (recombinant, E. coli) (UniProt Q8WV24)
[3] = tested on: 6-His-cofilin

Chain of 6-His-LIMK2 (recombinant, E. coli) (P53671 whole entry, looked up): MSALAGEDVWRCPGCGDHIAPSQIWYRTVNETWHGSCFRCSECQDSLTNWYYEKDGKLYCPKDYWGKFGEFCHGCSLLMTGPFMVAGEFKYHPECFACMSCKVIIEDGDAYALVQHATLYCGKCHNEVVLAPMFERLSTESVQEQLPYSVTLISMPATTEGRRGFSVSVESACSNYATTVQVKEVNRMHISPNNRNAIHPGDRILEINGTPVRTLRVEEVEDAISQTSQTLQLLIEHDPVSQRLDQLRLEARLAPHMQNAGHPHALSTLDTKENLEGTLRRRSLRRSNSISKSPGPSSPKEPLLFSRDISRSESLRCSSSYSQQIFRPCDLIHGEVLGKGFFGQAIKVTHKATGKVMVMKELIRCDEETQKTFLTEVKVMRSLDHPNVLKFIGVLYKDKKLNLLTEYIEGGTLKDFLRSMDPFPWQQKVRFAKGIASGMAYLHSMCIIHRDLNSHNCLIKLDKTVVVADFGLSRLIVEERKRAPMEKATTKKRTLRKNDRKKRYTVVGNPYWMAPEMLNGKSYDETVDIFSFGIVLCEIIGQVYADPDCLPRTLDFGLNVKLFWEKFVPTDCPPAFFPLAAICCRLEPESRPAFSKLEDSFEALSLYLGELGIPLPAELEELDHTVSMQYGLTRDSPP
Chain of 6-His-PHLDA1 (recombinant, E. coli) (Q8WV24 whole entry): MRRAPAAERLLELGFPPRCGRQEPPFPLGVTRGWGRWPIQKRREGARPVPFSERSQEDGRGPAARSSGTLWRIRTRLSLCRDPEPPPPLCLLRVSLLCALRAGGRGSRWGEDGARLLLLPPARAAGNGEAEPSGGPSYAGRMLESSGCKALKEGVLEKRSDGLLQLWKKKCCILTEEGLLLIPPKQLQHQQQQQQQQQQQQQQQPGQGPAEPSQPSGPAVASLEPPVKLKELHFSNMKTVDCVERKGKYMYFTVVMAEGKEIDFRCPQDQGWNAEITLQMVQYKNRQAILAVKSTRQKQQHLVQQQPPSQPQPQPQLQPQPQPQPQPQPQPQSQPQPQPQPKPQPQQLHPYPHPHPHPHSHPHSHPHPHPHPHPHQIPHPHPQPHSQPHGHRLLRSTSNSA

How did the “LIMK2 kinase activity (cofilin phosphorylation) after pre-incubation with Aurora A” value [1] turn out when “6-His-Aurora-A (recombinant, wild type, from Sf9 insect cells)” was run?
The value was “LIMK2 preincubated with Aurora A showed increased kinase activity (lane 2)”.

What about the “in vitro kinase assay with recombinant Aurora A/TPX2 and 6-His-LIMK2 (phosphorylation of LIMK2)” value [1] of the same substance?
Its value is “Aurora A directly phosphorylates LIMK2 (FIG. 5A, lane 2)”.

What about the “in vitro phosphorylation of wild-type, S283A, T494A and T505A LIMK2 alleles by Aurora A/TPX2” value [1] of the same substance?
The value was “Aurora A phosphorylates LIMK2 at all these sites (FIG. 8A)”.

What about the “in vitro kinase assay with Aurora A/TPX2 and [γ-32P]ATP (phosphorylation of PHLDA1)” value [2] of the same substance?
Its value is “Aurora A directly phosphorylated PHLDA1 (FIG. 1A, lane 2)”.

What about the “in vitro phosphorylation of wild-type, Ser78A and Ser98A PHLDA1 alleles by Aurora A/TPX2” value [2] of the same substance?
Its value is “Aurora A was found to predominantly phosphorylate PHLDA1 at Ser98 (FIG. 2C)”.

What about the “in vitro kinase assay, cofilin phosphorylation with [32P] ATP” value [3] of the same substance?
The value was “Aurora A does not phosphorylate cofilin (FIG. 6H, lanes 1 and 4)”.
